{
  "source": "patent US11274309B2",
  "about": "(dated 2022)",
  "key": {"peptide on HLA-A*02:01": {"molecular_target": "T1, peptide on HLA-A*02:01 (human)", "T1 peptide": "VYALPLKML", "experiment": "activation reporter or marker"}, "peptide on HLA-A*24:02": {"molecular_target": "T2, peptide on HLA-A*24:02 (human)", "T2 peptide": "VYALPLKML", "experiment": "activation reporter or marker"}},
  "data": [
    {"binder": "JG9-TCR (TCR, V domains shown) Valpha: GQQLNQSPQSMFIQEGEDVSMNCTSSSIFNTWLWYKQEPGEGPVLLIALYKAGELTSNGRLTAQFGITRKDSFLNISASIPSDVGIYFCAGPMKTSYDKVIFGPGTSLSVIP Vbeta: DAGVIQSPRHEVTEMGQEVTLRCKPISGHDYLFWYRQTMMRGLELLIYFNNNVPIDDSGMPEDRFSAKMPNASFSTLKIQPSEPRDSAVYFCASSSANYGYTFGSGTRLTVV", "values": [
      {"measurement": "binding result", "setting": "peptide on HLA-A*02:01", "result": "no recognition"},
      {"measurement": "binding result", "setting": "peptide on HLA-A*24:02", "result": "no recognition"}
    ]}
  ]
}
